Reference: patent US20120316071A1 (published 2012)
One block for each binder: values may come before it.

Experiments:
[1] = molecular target: T1, Recombinant Human DLL4 (R&D Systems Cat#1506-D4/CF) (human, UniProt Q9NR61 27-524); experiment: ECL (MSD) multispot binding assay, DLL4 immobilised, Fab in solution
T1 construct: Bought protein (R&D Systems Cat#1506-D4/CF), immobilised on the MSD plate; also called delta-like protein 4; rHuman DLL4

[2] = molecular target: T2, Recombinant Human DLL4 (delta-like protein 4) (human, UniProt Q9NR61 27-529); experiment: 96-well plate ECL binding assay, DLL4 immobilised, Fab in solution
T2 construct: Bought recombinant human DLL4 (R&D Systems Cat#1506-D4/CF); also called rHuman DLL4; Delta-like 4

[3] = molecular target: T2, Recombinant Human DLL4 (delta-like …); experiment: ELISA, DLL4 coated on plate, Fab in solution, absorbance at 450 nm
[4] = molecular target: T3, rHuman EGF R/Fc Chimera, CF (human, UniProt P00533 25-645); experiment: ECL Multispot (MSD) assay; antigen spotted on plate, Fab in solution;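 further: fab bound 1 h at 20 °C, detected by TAG-labelled antibody electrochemiluminescence, signal relative to each well's blank, ratio of 4 or more marks a hit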
T3 construct: Bought from R&D Systems; also called epidermal growth factor receptor; not shown: Fc of the bought chimera

[5] = molecular target: T4, rHuman ErbB2/Fc Chimera, CF (human, UniProt P04626 23-652); experiment: as above
T4 construct: Bought from R&D Systems; also called human epidermal growth factor 2 receptor; not shown: Fc of the bought chimera

[6] = molecular target: T5, rHuman Erythropoietin R/Fc Chimera, CF (human, UniProt P19235 25-250); experiment: as above
T5 construct: Bought from R&D Systems; also called EPO R; EPO R/Fc; not shown: Fc of the bought chimera
T5 sequence (looked up): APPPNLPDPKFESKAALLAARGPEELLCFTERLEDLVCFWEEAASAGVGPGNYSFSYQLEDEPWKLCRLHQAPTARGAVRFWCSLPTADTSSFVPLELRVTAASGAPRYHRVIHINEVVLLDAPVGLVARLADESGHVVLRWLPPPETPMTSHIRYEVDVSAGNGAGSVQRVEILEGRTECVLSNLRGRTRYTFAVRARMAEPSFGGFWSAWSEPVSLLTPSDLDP

[7] = molecular target: T6, rHuman IGF-1 sR, (IGF-1 sR), CF (human, UniProt P08069 31-932); experiment: as above
T6 construct: Bought from R&D Systems; also called insulin-like growth factor-1 soluble receptor

[8] = molecular target: T7, rHuman HGF R/c-MET/Fc Chimera, CF (human, UniProt P08581 25-932); experiment: as above
T7 construct: Bought from R&D Systems; also called HGF R/Fc; hepatocyte growth factor receptor; not shown: Fc of the bought chimera

[9] = molecular target: T8, rHuman Notch-1/Fc Chimera, CF (human, UniProt P46531 19-526); experiment: as above
T8 construct: Bought from R&D Systems; not shown: Fc of the bought chimera

[10] = molecular target: T9, rHuman CD44/Fc Chimera, CF (human, UniProt P16070 21-220); experiment: as above
T9 construct: Bought from R&D Systems; not shown: Fc of the bought chimera

Recombinant Human DLL4 = molecular target: T10, Recombinant Human DLL4 (human, UniProt Q9NR61 27-524); experiment: as above
T10 construct: Bought from R&D Systems; also called delta-like protein 4; rHuman DLL4

[11] = molecular target: T11, rHuman ErbB2/Fc Chimera, CF (R&D Systems Cat#1129-ER) (human, UniProt P04626 23-652); experiment: ECL multispot (MSD) binding assay, antigen spotted on plate;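 further: purified Fab incubated 1 h at 20 °C on antigen spots, detected with TAG-labelled antibody, electrochemiluminescence compared with each well's blank, signal-to-blank ratio ≥4 counted as hit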
T11 construct: Bought recombinant protein; also called human epidermal growth factor 2 receptor

[12] = molecular target: T12, rHuman Notch-1/Fc Chimera, CF (R&D Systems Cat#3647-TK) (human, UniProt P46531 19-526); experiment: as above
T12 construct: Bought recombinant protein

[13] = molecular target: T13, rHuman EGF R/Fc Chimera, CF (R&D Systems Cat#344-ER) (human, UniProt P00533 25-645); experiment: as above
T13 construct: Bought recombinant protein; also called epidermal growth factor receptor

[14] = molecular target: T14, Recombinant Human DLL4 (R&D Systems Cat#1506-D4/CF) (human, UniProt Q9NR61 27-524); experiment: as above
T14 construct: Bought recombinant protein; also called delta-like protein 4; rHuman DLL4

[15] = molecular target: T15, rHuman IGF-1 sR, (IGF-1 sR), CF (R&D Systems Cat#391-GR) (human, UniProt P08069 31-932); experiment: as above
T15 construct: Bought recombinant soluble receptor; also called insulin-like growth factor-1 soluble receptor

[16] = molecular target: T16, rHuman HGF R/c-MET/Fc Chimera, CF (R&D Systems Cat#358-MT/CF) (human, UniProt P08581 25-932); experiment: as above
T16 construct: Bought recombinant protein; also called HGF R/Fc; hepatocyte growth factor receptor

[17] = molecular target: T17, rHuman CD44/Fc Chimera, CF (R&D Systems Cat#3660-CD) (human, UniProt P16070 21-220); experiment: as above
T17 construct: Bought recombinant protein

[18] = molecular target: T18, rHuman P-Cadherin/Fc Chimera, CF (R&D Systems Cat#861-PC) (human, UniProt P22223 108-654); experiment: as above
T18 construct: Bought recombinant protein

T7 sequence (P08581 25-932, change not shown): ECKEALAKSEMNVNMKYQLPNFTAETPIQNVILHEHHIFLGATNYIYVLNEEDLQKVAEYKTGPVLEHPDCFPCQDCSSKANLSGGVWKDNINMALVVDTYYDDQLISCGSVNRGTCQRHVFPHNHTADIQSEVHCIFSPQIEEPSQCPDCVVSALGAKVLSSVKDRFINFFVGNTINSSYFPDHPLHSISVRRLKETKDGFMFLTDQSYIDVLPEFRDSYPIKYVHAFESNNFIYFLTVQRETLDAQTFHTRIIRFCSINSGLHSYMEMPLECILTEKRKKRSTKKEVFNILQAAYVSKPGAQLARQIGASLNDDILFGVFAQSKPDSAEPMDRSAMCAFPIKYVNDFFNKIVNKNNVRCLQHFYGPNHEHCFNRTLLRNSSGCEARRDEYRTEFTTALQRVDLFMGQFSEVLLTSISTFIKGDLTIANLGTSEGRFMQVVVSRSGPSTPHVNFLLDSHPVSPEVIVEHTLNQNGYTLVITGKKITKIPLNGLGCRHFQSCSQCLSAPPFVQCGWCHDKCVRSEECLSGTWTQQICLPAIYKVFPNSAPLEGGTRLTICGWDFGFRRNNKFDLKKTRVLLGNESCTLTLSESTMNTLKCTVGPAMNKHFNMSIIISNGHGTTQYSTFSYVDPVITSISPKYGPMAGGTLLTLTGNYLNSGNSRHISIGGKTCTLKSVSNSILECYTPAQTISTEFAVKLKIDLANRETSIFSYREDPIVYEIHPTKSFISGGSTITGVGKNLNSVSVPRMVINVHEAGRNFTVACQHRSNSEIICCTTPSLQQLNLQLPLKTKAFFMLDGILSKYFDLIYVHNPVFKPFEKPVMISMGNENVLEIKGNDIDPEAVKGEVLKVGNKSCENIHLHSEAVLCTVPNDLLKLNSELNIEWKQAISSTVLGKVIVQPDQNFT
T16 sequence (P08581 25-932, change not shown): as above

B1: Fab VH1-46_IGHD6-6*01_IGHJ1*01 S102A/S103P/S104F (APF) & L6_IGKJ1*01 R91P (Fab, V domains shown)
VH: QVQLVQSGAEVKKPGASVKVSCKASGYTFTSYYMHWVRQAPGQGLEWMGIINPSGGSTSYAQKFQGRVTMTRDTSTSTVYMELSSLRSEDTAVYYCAREEYAPFSAEYFQHWGQGTLVTVSS
VL: EIVLTQSPATLSLSPGERATLSCRASQSVSSYLAWYQQKPGQAPRLLIYDASNRATGIPARFSGSGSGTDFTLTISSLEPEDFAVYYCQQPSNWPPWTFGQGTKVEIKR
notes: Fab with CH1 plus His6/Flag tags and kappa CL from the expression plasmids; also called APF & R91P
ECL signal [1]: 1280
Signal/Blank [1]: 4.7

B2: Fab VH1-46_IGHD6-6*01_IGHJ1*01 S102A/S103P/S104F/H111F & L6_IGKJ1*01 S28N/S30D/S31H (Fab, V domains shown)
VH: QVQLVQSGAEVKKPGASVKVSCKASGYTFTSYYMHWVRQAPGQGLEWMGIINPSGGSTSYAQKFQGRVTMTRDTSTSTVYMELSSLRSEDTAVYYCAREEYAPFSAEYFQFWGQGTLVTVSS
VL: EIVLTQSPATLSLSPGERATLSCRASQNVDHYLAWYQQKPGQAPRLLIYDASNRATGIPARFSGSGSGTDFTLTISSLEPEDFAVYYCQQRSNWPPWTFGQGTKVEIKR
notes: Parental template of this NNK series; Fab with CH1 (plasmid A, His6 and Flag tags) and kappa CL (plasmid C); also called H:APFF & L:NDH; NDH
ECL signal [2]: 18700
ELISA (Avgerage signal-noise) [3]: 0.165

B3: Fab VH1-46_IGHD6-6*01_IGHJ1*01 S102A/S103P/S104F (APF) & L6_IGKJ1*01 S92N (Fab, V domains shown)
VH: QVQLVQSGAEVKKPGASVKVSCKASGYTFTSYYMHWVRQAPGQGLEWMGIINPSGGSTSYAQKFQGRVTMTRDTSTSTVYMELSSLRSEDTAVYYCAREEYAPFSAEYFQHWGQGTLVTVSS
VL: EIVLTQSPATLSLSPGERATLSCRASQSVSSYLAWYQQKPGQAPRLLIYDASNRATGIPARFSGSGSGTDFTLTISSLEPEDFAVYYCQQRNNWPPWTFGQGTKVEIKR
notes: Fab with CH1 plus His6/Flag tags and kappa CL from the expression plasmids; also called APF & S92N
ECL signal [1]: 2090

Second part, the binder after the results:

ECL signal [4]: 321
ECL signal [5]: 271
ECL signal [6]: 380
ECL signal [7]: 355
ECL signal [8]: 371
ECL signal [9]: 249
ECL signal [10]: 368
ECL signal (Recombinant Human DLL4): 159000
B4: Fab VH1-46_IGHD6-6*01_IGHJ1*01 S102A/S103P/S104F/H111F (APFF) & L6_IGKJ1*01 S28T (Fab, V domains shown)
VH: QVQLVQSGAEVKKPGASVKVSCKASGYTFTSYYMHWVRQAPGQGLEWMGIINPSGGSTSYAQKFQGRVTMTRDTSTSTVYMELSSLRSEDTAVYYCAREEYAPFSAEYFQFWGQGTLVTVSS
VL: EIVLTQSPATLSLSPGERATLSCRASQTVSSYLAWYQQKPGQAPRLLIYDASNRATGIPARFSGSGSGTDFTLTISSLEPEDFAVYYCQQRSNWPPWTFGQGTKVEIKR
notes: Fab made in E. coli; the variable domains were cloned into Plasmid A (CH1, His and Flag tags) and Plasmid C (kappa CL); also called APFF / S28T

ECL signal [2]: 17600
ELISA (Avgerage signal-noise) [3]: 0.204
B5: Fab VH1-46_IGHD6-6*01_IGHJ1*01 S102A/S103P/S104F/H111F & L6_IGKJ1*01 S28N/S30D/S31H N53E (Fab, V domains shown)
VH: QVQLVQSGAEVKKPGASVKVSCKASGYTFTSYYMHWVRQAPGQGLEWMGIINPSGGSTSYAQKFQGRVTMTRDTSTSTVYMELSSLRSEDTAVYYCAREEYAPFSAEYFQFWGQGTLVTVSS
VL: EIVLTQSPATLSLSPGERATLSCRASQNVDHYLAWYQQKPGQAPRLLIYDASERATGIPARFSGSGSGTDFTLTISSLEPEDFAVYYCQQRSNWPPWTFGQGTKVEIKR
notes: Fab with CH1 (plasmid A, His6 and Flag tags) and kappa CL (plasmid C); also called H:APFF & L:NDH N53E

ECL signal [11]: 383
ECL signal [12]: 424
ECL signal [13]: 415
ECL signal [14]: 192000
ECL signal [15]: 334
ECL signal [16]: 309
ECL signal [17]: 406
ECL signal [18]: 361
B6: Fab VH1-46_IGHD6-6*01_IGHJ1*01 S102A/S103P/S104F/H111F (APFF) & L6_IGKJ1*01 S31A (Fab, V domains shown)
VH: QVQLVQSGAEVKKPGASVKVSCKASGYTFTSYYMHWVRQAPGQGLEWMGIINPSGGSTSYAQKFQGRVTMTRDTSTSTVYMELSSLRSEDTAVYYCAREEYAPFSAEYFQFWGQGTLVTVSS
VL: EIVLTQSPATLSLSPGERATLSCRASQSVSAYLAWYQQKPGQAPRLLIYDASNRATGIPARFSGSGSGTDFTLTISSLEPEDFAVYYCQQRSNWPPWTFGQGTKVEIKR
notes: Tested as Fab (CH1 with His6/Flag tags, kappa CL) made in E. coli; also called APFF / S31A
